The source of these data is publication PMC4333417 (Nucleic Acids Research, 2015).

Series [1] deals with MBD of human MeCP2 (human, UniProt P51608 77-166). The series can be described thus: EMSA. In general terms: In EMSA bound probe runs differently from free probe, usually more slowly.
Series [2] addresses T1, Sco5333 H253A (Streptomyces coelicolor, UniProt Q9ADD4 1-301, H253A).
T1 sequence: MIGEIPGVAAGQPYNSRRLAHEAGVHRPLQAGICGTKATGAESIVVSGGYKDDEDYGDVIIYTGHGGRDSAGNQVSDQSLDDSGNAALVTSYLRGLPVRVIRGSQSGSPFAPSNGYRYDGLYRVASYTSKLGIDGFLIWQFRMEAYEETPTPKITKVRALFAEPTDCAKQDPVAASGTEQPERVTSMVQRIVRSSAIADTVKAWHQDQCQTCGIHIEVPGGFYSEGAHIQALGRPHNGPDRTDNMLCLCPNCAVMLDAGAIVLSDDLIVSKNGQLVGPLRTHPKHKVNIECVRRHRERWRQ
Briefly: EMSA.

Series [3] addresses MBD of mouse MeCP2 (mouse, UniProt Q9Z2D6 77-165). Briefly: EMSA.
In series [4] the target is T2, Sco5333 H228A (Streptomyces coelicolor, UniProt Q9ADD4 1-301, H228A).
T2 sequence: T1 sequence with H228A, A253H
Briefly: EMSA.

Series [5] addresses T3, Sco5333 Y50A (Streptomyces coelicolor, UniProt Q9ADD4 1-301, Y50A).
T3 sequence: T1 sequence with Y50A, A253H
The series can be described thus: EMSA.

In series [6] the target is T4, Sco5333 G32A (Streptomyces coelicolor, UniProt Q9ADD4 1-301, G32A).
T4 sequence: T1 sequence with G32A, A253H
The series can be described thus: EMSA.

In series [7] the target is T5, Sco5333 (Streptomyces coelicolor, UniProt Q9ADD4 1-301).
T5 sequence: T1 sequence with A253H
The series can be described thus: ITC.

Substitutions are numbered along the chain they refer to.

Chain of MBD of human MeCP2 (P51608 77-166): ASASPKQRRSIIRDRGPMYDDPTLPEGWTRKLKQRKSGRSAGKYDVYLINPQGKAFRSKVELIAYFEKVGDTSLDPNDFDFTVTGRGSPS
Chain of MBD of mouse MeCP2 (Q9Z2D6 77-165): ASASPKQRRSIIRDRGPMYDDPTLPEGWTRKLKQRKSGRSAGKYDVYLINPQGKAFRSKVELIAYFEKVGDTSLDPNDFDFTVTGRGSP

B1: 66nt non-methylated (66nt-2/4) (dsDNA)
DNA 1: AAAAACGGCGTTTCCGGGTTCCATAGGCTCCGCACCGGTCTCTGATGACCAGGGCATCACATTTTT
DNA 2: AAAAATGTGATGCCCTGGTCATCAGAGACCGGTGCGGAGCCTATGGAACCCGGAAACGCCGTTTTT
Turning to B1, the binding signal in series [1] was 64 protein:DNA molar ratio for shift.

B2: 54nt fully methylated (54nt-1/3) (dsDNA)
DNA 1: GAAACCCGACAGGACTATAAAGATACCGGCGTTTCCCCCTGGAAGCTCCCTCGT
DNA 2: ACGAGGGAGCTTCCAGGGGGAAACGCCGGTATCTTTATAGTCCTGTCGGGTTTC
modifications: 5mC at strand 1 pos 27 and strand 2 pos 27
Turning to B2, the binding result in series [2] was “binds”; in series [3], “binds”; in series [4], “binds”; in series [5], “no binding”; in series [6] it was “no binding”. The molecule also yielded a Kd in series [7] of 4.13 µM.

As a reminder, the Kd is the free concentration of one partner at which half of the binding sites on the other are occupied at equilibrium, for simple one-to-one binding. Low readings indicate higher affinity, high ones lower affinity.
